Results from US5750335.

Molecular target: T1, MutS (Salmonella typhimurium) (UniProt P0A1Y0)
T1 sequence: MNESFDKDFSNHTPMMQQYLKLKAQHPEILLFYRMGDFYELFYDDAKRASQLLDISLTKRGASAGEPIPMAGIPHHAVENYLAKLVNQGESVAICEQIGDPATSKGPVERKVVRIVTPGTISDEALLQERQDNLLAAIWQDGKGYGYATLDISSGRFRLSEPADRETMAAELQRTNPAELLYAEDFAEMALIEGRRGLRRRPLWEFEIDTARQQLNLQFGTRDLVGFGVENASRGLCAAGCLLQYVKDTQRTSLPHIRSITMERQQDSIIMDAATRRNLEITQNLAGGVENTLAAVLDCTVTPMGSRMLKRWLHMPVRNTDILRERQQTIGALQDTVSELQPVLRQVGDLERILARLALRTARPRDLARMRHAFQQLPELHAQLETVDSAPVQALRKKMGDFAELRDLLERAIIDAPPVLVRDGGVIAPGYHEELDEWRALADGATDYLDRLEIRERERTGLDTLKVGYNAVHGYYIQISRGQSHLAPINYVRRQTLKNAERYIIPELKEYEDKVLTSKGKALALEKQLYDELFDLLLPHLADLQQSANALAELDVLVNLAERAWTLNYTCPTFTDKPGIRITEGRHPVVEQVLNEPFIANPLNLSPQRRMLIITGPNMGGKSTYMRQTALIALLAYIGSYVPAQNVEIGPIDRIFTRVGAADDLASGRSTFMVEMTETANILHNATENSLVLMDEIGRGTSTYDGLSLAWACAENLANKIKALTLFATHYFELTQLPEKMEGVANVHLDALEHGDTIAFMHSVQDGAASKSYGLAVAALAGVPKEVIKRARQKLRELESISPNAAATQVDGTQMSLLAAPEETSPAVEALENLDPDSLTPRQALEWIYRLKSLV
Assay: pulldown
Details: on ice

Substance | binding signal (fold over homoduplex) (immunoprecipitation with anti-MutS, 1 ug lambda competitor DNA) | binding signal (fold (reference)) (homoduplex control precipitated 9.6 fold less, competitor DNA)
1 KB AvaII-BglII M13mp8 C-A heteroduplex | 9.6 | –
1 KB AvaII-BglII M13mp8 homoduplex | – | 1
